Reference: patent US20220251159A1

Target: fluorescently labeled WTp53DBD (MST assay) (UniProt P04637)
Assay: MST; FIG. 3D; myristoylated

fluorescently labeled WTp53DBD (MST assay), sequence (P04637 94-312): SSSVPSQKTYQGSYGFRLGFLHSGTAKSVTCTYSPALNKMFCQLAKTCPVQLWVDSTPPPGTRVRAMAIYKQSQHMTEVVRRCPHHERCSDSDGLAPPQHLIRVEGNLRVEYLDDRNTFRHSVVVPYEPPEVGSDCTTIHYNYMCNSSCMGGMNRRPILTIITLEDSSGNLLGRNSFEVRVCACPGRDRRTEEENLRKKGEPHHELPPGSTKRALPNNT

pCAP-402 myr-HSTPHPD
Kd: 30 µM
